Assay results published in patent US20050277581A1.
“And” between values parts separate entries of the source, which are not always exact repeats. Identical values can stand only once.

Columns and labels:
[1] = molecular target: N,N′-diacetyl-Lys-D-Ala-D-Ala (Sigma D-9904, fw 372.4); experiment: ITC, 37 C, 482 µM HSA present
[2] = molecular target: N,N′-diacetyl-Lys-D-Ala-D-Ala (Sigma D-9904, fw 372.4); experiment: ITC, 25 C, 601 µM HSA present
mouse serum proteins = experiment: cell-based or functional assay
human serum proteins = experiment: cell-based or functional assay
rat albumin (rat) = rat albumin (rat) (UniProt P02770); experiment: ITC, protein injected into dalbavancin
Chain of rat albumin (rat) (P02770 25-608 limits assumed): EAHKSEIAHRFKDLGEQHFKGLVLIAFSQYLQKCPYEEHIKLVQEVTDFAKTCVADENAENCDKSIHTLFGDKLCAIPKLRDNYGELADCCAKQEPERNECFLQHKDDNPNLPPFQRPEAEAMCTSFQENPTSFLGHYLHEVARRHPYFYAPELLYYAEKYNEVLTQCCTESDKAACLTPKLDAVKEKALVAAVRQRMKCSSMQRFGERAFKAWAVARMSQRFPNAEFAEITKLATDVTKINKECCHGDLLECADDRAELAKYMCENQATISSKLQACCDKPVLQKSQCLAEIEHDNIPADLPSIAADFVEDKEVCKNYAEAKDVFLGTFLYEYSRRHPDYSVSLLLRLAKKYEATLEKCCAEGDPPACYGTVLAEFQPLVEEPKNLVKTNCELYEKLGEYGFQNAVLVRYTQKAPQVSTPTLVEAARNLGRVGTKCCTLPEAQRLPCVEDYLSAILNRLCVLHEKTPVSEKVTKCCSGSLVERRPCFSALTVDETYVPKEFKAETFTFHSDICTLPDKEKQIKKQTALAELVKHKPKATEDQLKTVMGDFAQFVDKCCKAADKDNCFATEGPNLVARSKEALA

bovine albumin (bovine) = bovine albumin (bovine) (UniProt P02769); experiment: ITC, protein injected into dalbavancin
Chain of bovine albumin (bovine) (P02769 25-607 limits assumed): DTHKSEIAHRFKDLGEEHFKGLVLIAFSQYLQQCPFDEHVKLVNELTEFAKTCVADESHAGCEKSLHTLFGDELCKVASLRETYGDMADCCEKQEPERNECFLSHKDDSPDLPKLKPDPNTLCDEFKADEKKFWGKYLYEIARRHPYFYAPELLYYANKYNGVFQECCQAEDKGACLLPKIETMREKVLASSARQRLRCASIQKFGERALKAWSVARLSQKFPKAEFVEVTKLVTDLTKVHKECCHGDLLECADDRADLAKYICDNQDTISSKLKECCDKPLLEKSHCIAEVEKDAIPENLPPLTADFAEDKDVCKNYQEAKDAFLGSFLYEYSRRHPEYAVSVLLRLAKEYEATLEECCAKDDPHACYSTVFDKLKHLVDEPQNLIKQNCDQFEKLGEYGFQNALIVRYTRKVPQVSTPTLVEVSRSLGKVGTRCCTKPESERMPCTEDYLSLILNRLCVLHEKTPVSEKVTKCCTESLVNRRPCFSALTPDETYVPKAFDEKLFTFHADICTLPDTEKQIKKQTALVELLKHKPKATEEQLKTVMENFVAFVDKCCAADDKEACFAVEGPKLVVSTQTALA

[3] = molecular target: human α-glycoprotein (human) (UniProt P02763); experiment: ITC, protein injected into dalbavancin
Chain of human α-glycoprotein (human) (P02763 19-201): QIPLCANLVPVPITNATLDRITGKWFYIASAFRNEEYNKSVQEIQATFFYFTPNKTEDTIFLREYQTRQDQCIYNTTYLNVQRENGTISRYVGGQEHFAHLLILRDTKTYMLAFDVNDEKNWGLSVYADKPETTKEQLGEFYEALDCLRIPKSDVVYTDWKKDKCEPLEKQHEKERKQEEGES

dog albumin (dog) = dog albumin (dog) (UniProt P49822); experiment: ITC, protein injected into dalbavancin
Chain of dog albumin (dog) (P49822 25-608 limits assumed): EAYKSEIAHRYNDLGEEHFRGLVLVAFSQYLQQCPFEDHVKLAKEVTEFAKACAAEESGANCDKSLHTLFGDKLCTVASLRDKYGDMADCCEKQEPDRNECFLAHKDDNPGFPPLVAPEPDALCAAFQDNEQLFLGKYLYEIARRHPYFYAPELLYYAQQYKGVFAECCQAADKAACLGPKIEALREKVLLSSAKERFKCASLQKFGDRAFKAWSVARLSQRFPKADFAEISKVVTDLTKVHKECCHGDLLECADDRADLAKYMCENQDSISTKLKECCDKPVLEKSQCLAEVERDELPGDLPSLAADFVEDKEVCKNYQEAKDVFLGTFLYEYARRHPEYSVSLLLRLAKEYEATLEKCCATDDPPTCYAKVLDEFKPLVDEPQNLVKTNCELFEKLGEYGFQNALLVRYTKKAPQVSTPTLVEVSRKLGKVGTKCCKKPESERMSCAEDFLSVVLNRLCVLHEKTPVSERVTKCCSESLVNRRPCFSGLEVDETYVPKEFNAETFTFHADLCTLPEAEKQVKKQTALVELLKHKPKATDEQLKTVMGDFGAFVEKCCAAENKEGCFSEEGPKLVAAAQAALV

[4] = molecular target: N,N′-diacetyl-Lys-D-Ala-D-Ala (Sigma D-9904, fw 372.4); experiment: ITC, 37 C, no HSA
[5] = molecular target: human albumin (HSA; Sigma A-3782; mw 69,366) (human) (UniProt P02768); experiment: calculated from ITC Ka, dalbavancin 1-500 µM
[6] = molecular target: N,N′-diacetyl-Lys-D-Ala-D-Ala (Sigma D-9904, fw 372.4); experiment: ITC, preliminary experiments, no serum proteins
[7] = molecular target: N,N′-diacetyl-Lys-D-Ala-D-Ala (Sigma D-9904, fw 372.4); experiment: ITC, 25 C, 430 µM HSA present
[8] = molecular target: N,N′-diacetyl-Lys-D-Ala-D-Ala (Sigma D-9904, fw 372.4); experiment: ITC, 25 C, 288 µM HSA present
[9] = molecular target: N,N′-diacetyl-Lys-D-Ala-D-Ala (Sigma D-9904, fw 372.4); experiment: ITC, 25 C, 104 µM HSA present
[10] = molecular target: N,N′-diacetyl-Lys-D-Ala-D-Ala (Sigma D-9904, fw 372.4); experiment: ITC, 25 C, non-competitive binding model (KL)
[11] = molecular target: N,N′-diacetyl-Lys-D-Ala-D-Ala (Sigma D-9904, fw 372.4); experiment: ITC, 10 C, no HSA
[12] = molecular target: N,N′-diacetyl-Lys-D-Ala-D-Ala (Sigma D-9904, fw 372.4); experiment: ITC, 25 C, no HSA
[13] = molecular target: N,N′-diacetyl-Lys-D-Ala-D-Ala (Sigma D-9904, fw 372.4); experiment: ITC, 25 C, 513 µM HSA present

Substance	N [1]	N [2]	degree of protein binding estimated from MIC difference (mouse serum proteins) [%]	degree of binding in human serum estimated from MIC difference (human serum proteins) [%]	N (moles of protein per dalbavancin) (rat albumin (rat))	N (moles of protein per dalbavancin) (bovine albumin (bovine))	N (moles of protein per dalbavancin) [3]	N (moles of protein per dalbavancin) (dog albumin (dog))	N [4]	percent bound [5] [%]	Kd [6] [µM]	N [7]	N [8]	N [9]	Kd [10] [µM]	N [11]	N [12]	N [13]
Dalbavancin (peptide)	0.179	0.86	99.6	96	< 1	< 1	< 1	< 1	0.82	> 98	10	1.24	0.9	1.38	3			
Vancomycin hydrochloride (Sigma V-2002, fw 1485.7) (peptide)																1.1	0.91 and 0.97	1.05
